Results published in the supplement of paper PMC10126150.
± gives the standard deviation of the averaged measurements.

Test system: ATP
Assay: switch fluorescence ratio, 500 uM ATP over buffer (Cy3 cluster intensity, sum of 5 cycles each) (fold (ratio)); higher = stronger signal-on switching upon ATP binding; sequences stand for … in TCGTCGGCAGCGTCAGATGTGTATAAGAGACAGTTTTTTTTTTTTTTTTTTTTTTTTT…TC
Conditions: aptamer strand: ATP DNA aptamer (quencher-CACCTGGGGGAGTATTGCGGAGGAAGG + anchor), 100 nM annealed; ATP concentration: 500 uM
Summary of the method: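 Values give the fluorescence ratio for each switch-domain sequence, averaged from per-cluster ratios of summed target-cycle to summed buffer-cycle Cy3 intensity. The Cy3-labelled switching-strand clusters sat on a modified Illumina MiSeq flow-cell, were annealed to 100 nM quencher-labelled ATP aptamer, and were imaged in selection buffer, then after 15 min with 500 uM ATP at 22 °C. Five cycles ran with NaOH stripping and re-annealing between them, and clusters outside 100-1000 RFU were excluded.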
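Further: ATP exposure 15 min at 22 °C before imaging.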

Sequence | switch fluorescence ratio
TAAGGGAAAA | 0.977 ± 0.023
ATAATGTTGT | 0.991 ± 0.031
TGAGCTAATG | 1.04 ± 0.043
TCATAAAAGC | 0.99 ± 0.027
ATGGTTTGGG | 0.99 ± 0.045
AGTATTTATT | 1 ± 0.03
TTAATCTGGG | 0.992 ± 0.016
CGTTTGGGCA | 1.01 ± 0.017
TAGTTGAGTT | 0.982 ± 0.029
AATCATATTT | 1.02 ± 0.018
CCGTACGTCA | 1.77 ± 0.041
AAATAGAAAT | 0.96 ± 0.011
AATTGAAACA | 0.9731 ± 0.0068
GGGGATTGAG | 0.973 ± 0.042
ACTTGATAGG | 1.03 ± 0.041
CATCTGTGCG | 1.02 ± 0.016
AGTAGGGTGC | 1.07 ± 0.12
AGAATGATTA | 0.986 ± 0.01
GGGGGAGAAC | 1.026 ± 0.0019
TCAAGGGAAA | 1 ± 0.058
ATTTGCCGGG | 1.031 ± 0.0081
ATACTTAGTG | 0.986 ± 0.019
GTAAGTGAGT | 0.994 ± 0.037
GCAGTTAATC | 1.05 ± 0.026
TATTGGGAAA | 1.06 ± 0.045

Sequence | switch fluorescence ratio
CGTTTCGTTG | 0.9635 ± 0.0019
TCATGTGTTG | 0.992 ± 0.045
ATGTAATGGT | 1.01 ± 0.03
GGGGAATCAG | 1.03 ± 0.017
CGGTCTTACT | 1.02 ± 0.02
AAAGGTCCGC | 1.18 ± 0.051
TTATAGGGGA | 0.998 ± 0.082
ACCTGATGTC | 1.06 ± 0.015
GCTCGAAAGA | 1.008 ± 0.0024
GGAGCCGGGG | 1 ± 0.022
CAGTTTTCTT | 1.01 ± 0.062
TACGTTGGCA | 1.03 ± 0.035
CCGGTTGTGA | 1.177 ± 0.0083
TGGGGCCGGG | 1.01 ± 0.016
TAAAAGGGGT | 1.01 ± 0.05
AATGCCAAGG | 1 ± 0.03
TAAGTGGTTG | 0.989 ± 0.052
AAAGAACGGA | 1.06 ± 0.095
ATTTTTTTCC | 1.38 ± 0.57
GTGGGGTATG | 0.977 ± 0.032
GGAGGACGGG | 1 ± 0.027
GGGTCTTCGT | 0.968 ± 0.039
AGGGCAATAT | 3.84 ± 0.48
TGTGAGGCGG | 1.04 ± 0.11
TGATCGGGGG | 0.982 ± 0.064

Sequence | switch fluorescence ratio
TAGGAAGCGT | 0.9777 ± 0.0039
TCGGTTTAGC | 1.02 ± 0.035
TTGGCGCTGT | 0.971 ± 0.0017
GGGGCAGAAA | 1.26 ± 0.45
CGATTCTCAA | 1.021 ± 0.0006
GCACTCCAGG | 2.61 ± 0.22
TGGTGGGGTT | 0.984 ± 0.02
TAATAGCATA | 1.03 ± 0.033
TGAATAATCT | 1.055 ± 0.004
CGGATTTGGA | 0.976 ± 0.051
CTTTTACTCG | 1.01 ± 0.073
TTTTGGGTCA | 1.02 ± 0.018
ACGTAGGGGT | 1.21 ± 0.27
TACGTCAGTC | 1.05 ± 0.028
ATTGCATGCA | 0.985 ± 0.026
GATGATCGGG | 1.02 ± 0.013
TTGTTTCGGG | 0.978 ± 0.018
GCCCGGAGAC | 1.71 ± 0.025
GAAGGAGGGG | 1.06 ± 0.036
CGTTGTGGAA | 1.006 ± 0.0056
CGTGACCTTT | 1.02 ± 0.048
TATGTTAAAG | 0.996 ± 0.017
GAATGTTCTG | 0.996 ± 0.052
TGCTTATTTG | 1 ± 0.023
TTTGATACAG | 1.012 ± 0.0071

Sequence | switch fluorescence ratio
GTTTTATTTT | 1 ± 0.047
TCATGGCCAG | 1.04 ± 0.078
ATAGGGTAAG | 0.965 ± 0.018
TACAAGGGAT | 0.983 ± 0.013
GAACGGTATT | 1.06 ± 0.065
TTTAGAGAGC | 0.987 ± 0.051
GATACTCGCG | 1.03 ± 0.0056
CCTATTTATT | 1.01 ± 0.02
CCGTAAGAAT | 1.37 ± 0.055
AGGTTAGACG | 1.01 ± 0.04
GACACGGGGT | 1 ± 0.071
TACGTTTACG | 1.018 ± 0.0027
TCCTGGATGG | 0.98 ± 0.022
TTAAATTGGT | 0.99 ± 0.025
TAAGGCAATT | 1.06 ± 0.041
TAGGTTTGGT | 1.018 ± 0.0063
AGTTCTGGTT | 0.965 ± 0.011
GAGGGTTAAT | 1.02 ± 0.02
TTTACTTAGT | 1.02 ± 0.018
GGTGTTAGAT | 0.993 ± 0.035
GGAAATAAGG | 1.01 ± 0.033
CCAGTGTGAG | 1.13 ± 0.039
CTGGTCCGGC | 1.01 ± 0.078
TTGCGTTATC | 1.2 ± 0.27
ATGGCACAAT | 1.02 ± 0.067

Sequence | switch fluorescence ratio
CCACAATCAG | 1.274 ± 0.012
TACATTTATA | 1.02 ± 0.019
TTATGTTCGA | 1.018 ± 0.005
GGTTATGGGA | 0.996 ± 0.032
TGTAACCCAT | 1.02 ± 0.061
AAGTAGTTTC | 1.01 ± 0.018
AATTATACCC | 1.03 ± 0.029
TCCAGGTGCG | 2.96 ± 0.33
ATTTTATCTC | 1.22 ± 0.27
AAAAGCGTAG | 1.01 ± 0.015
AATACATGTA | 0.984 ± 0.013
ATTTTGAAAG | 1.01 ± 0.022
TATGTTAGGC | 1.018 ± 0.01
TTTAACGGTG | 1.02 ± 0.027
TAAGGTATTT | 1.01 ± 0.023
AACGGAGTGG | 1 ± 0.042
GAGTGGTCAG | 0.9638 ± 0.0077
AAACTAGCGC | 0.981 ± 0.015
GAGGGTAGGT | 1.06 ± 0.063
GACTGGCATA | 1.097 ± 0.0039
CTGAAATTTT | 1.0192 ± 0.00063
GTGTTTAGGA | 1.02 ± 0.018
GGCACGCGAG | 1.03 ± 0.05
TCGTGGTGGG | 0.994 ± 0.012
TTAAAATCAG | 1.01 ± 0.027

Sequence | switch fluorescence ratio
GGGTTTAATT | 0.999 ± 0.011
CGTTGGGTGG | 1.02 ± 0.076
TTTATACCGC | 1.13 ± 0.071
GGTTTTATGA | 1.002 ± 0.0062
AAAAGATATT | 0.996 ± 0.049
GAGGGACGGC | 0.999 ± 0.059
TGGGAGGCAA | 1.16 ± 0.021
CTGGTTTCGG | 0.993 ± 0.022
TTGTTGATTA | 0.9935 ± 0.0089
TAGGAAGATG | 1.02 ± 0.1
CAGTATTTCC | 1.05 ± 0.043
TCTAGTAAAT | 1.01 ± 0.015
AAGGGTATGC | 1 ± 0.035
GTGGGGGTCT | 0.972 ± 0.013
GTTGGGACTG | 1 ± 0.055
CATGTGCACC | 1.014 ± 0.0092
AAGGGCCGGG | 0.967 ± 0.029
CAGTTTCAGG | 0.966 ± 0.043
AAGGGGGTGT | 0.965 ± 0.026
AATTAGGTTG | 0.967 ± 0.025
ATTCGGCCTT | 1.01 ± 0.043
CGGTCGATCC | 1 ± 0.023
AAAAGGGGAA | 1.02 ± 0.025
ACCAATCGGG | 0.9917 ± 0.002
GACCTATCTT | 1.035 ± 0.0017

Sequence | switch fluorescence ratio
GCTTTACTGT | 1.01 ± 0.013
GGTGGATTGC | 1.04 ± 0.02
GAATCAATGG | 1.03 ± 0.02
CGCTACAATG | 1.0456 ± 0.00099
GGTTTGGCGT | 0.981 ± 0.017
GGGCGCCTGC | 0.9942 ± 0.0065
ACGTTGAAGT | 1.01 ± 0.019
TTCCGGGCTT | 1.41 ± 0.38
TTTCAAGTGG | 1.014 ± 0.0096
TTTTGCCCCC | 1.12 ± 0.14
AAAGCCGTTT | 1.2 ± 0.27
GGCTAGTACT | 1.01 ± 0.011
GCTTTGGATA | 1.04 ± 0.055
TAGGAGAGAC | 0.998 ± 0.057
GCAGAGGTGG | 1.05 ± 0.037
TTTAATATTA | 0.986 ± 0.015
GGAACGTTGG | 0.973 ± 0.045
AATGAAGTGT | 0.996 ± 0.012
TGGGGATGGA | 0.998 ± 0.02
TATATCGGCT | 1.03 ± 0.023
TTAGGACAGC | 1.02 ± 0.021
ATGTTGGGTT | 0.982 ± 0.031
TTCACCGGGA | 0.9932 ± 0.007
AGAATGGTTT | 0.985 ± 0.03
GGGAGTTAGG | 0.9609 ± 0.0049

Sequence | switch fluorescence ratio
TTAAGGCTTT | 0.984 ± 0.025
TGTTATGGGT | 1.04 ± 0.039
TTGTAAATGC | 1.26 ± 0.29
TGGATGTGTG | 0.962 ± 0.038
AATTTAGAGT | 1 ± 0.012
TAAGAGATGT | 0.978 ± 0.034
AATCATTTTG | 1 ± 0.018
GGCCTGAGGG | 0.9854 ± 0.0032
AGAAAATTAC | 2.42 ± 2
TTTAAAGATC | 1 ± 0.021
CCTTTTTATT | 0.9882 ± 0.0064
AAGTTTGCAT | 0.978 ± 0.021
TTCAAAATTA | 0.9913 ± 0.0096
CAGTTCGGGA | 0.989 ± 0.02
CGAGTGAATC | 1.01 ± 0.019
TAAGGGGGAC | 1.01 ± 0.053
TAAACGCGGG | 1.04 ± 0.093
TTTAAATATG | 0.9942 ± 0.0073
AGTTGGCTTA | 1.01 ± 0.013
GCAGGGATCA | 0.9813 ± 0.0013
TTCGCGACTT | 0.987 ± 0.029
CAGTTTTTTC | 1.005 ± 0.0054
GTGATAACGG | 1.008 ± 0.0091
TTTATATGGC | 1.03 ± 0.08
AGTTTCGGGC | 0.974 ± 0.033
